What all share (conditions): La3+ as metal cofactor; PQQ enzyme; artificial electron acceptor PMS/DCPIP
Substrate in the series “purified protein”: C=O
The series can be described thus: purified protein.

Substrate in series [1]: CO
The series can be described thus: PMS-mediated DCPIP reduction, Michaelis-Menten fit. The format is biochemical, Methylorubrum extorquens.

Substrate in series [2]: CCO
Kind of series: PMS-mediated DCPIP reduction, Michaelis-Menten fit. The format is biochemical, Methylorubrum extorquens.

B1: XoxF1 MDH (XoxF1-La) (Methylorubrum extorquens AM1) (protein)
chain: NESVLKGVANPAEQVLQTVDYANTRYSKLDQINASNVKNLQVAWTFSTGVLRGHEGSPLVVGNIMYVHTPFPNIVYALDLDQGAKIVWKYEPKQDPSVIPVMCCDTVNRGLAYADGAILLHQADTTLVSLDAKSGKVNWSVKNGDPSKGETNTATVLPVKDKVIVGISGGEFGVQCHVTAYDLKSGKKVWRGYSIGPDDQLIVDPEKTTSLGKPIGKDSSLKTWEGDQWKTGGGCTWGWFSYDPKLDLMYYGSGNPSTWNPKQRPGDNKWSMTIWARNPDTGMAKWVYQMTPHDEWDFDGINEMILTDQKFDGKDRPLLTHFDRNGFGYTLDRATGEVLVAEKFDPVVNWATKVDLDKGSKTYGRPLVVSKYSTEQNGEDVNSKGICPAALGTKDQQPAAFSPKTGLFYVPTNHVCMDYEPFRVTYTPGQPYVGATLSMYPAPGSHGGMGNFIAWDNLQGKIKWSNPEQFSAWGGALATAGDVVFYGTLEGFLKAVDSKTGKELYKFKTPSGIIGNVMTYEHKGKQHVAVLSGVGGWAGIGLAAGLTDPNAGLGAVGGYAALSSYTNLGGQLTVFSLPNN
Consider B1, for which the Michaelis constant (Km) in “purified protein” worked out at 96 µM; in series [1], 44 µM; in series [2], 639 µM.

For the origin of these results see article doi:10.1101/329011v1.
